Test results from US20170190753A1 (LABORATOIRE FRANCAIS DU FRACTIONNEMENT ET DES …, published 2017).

Target: C3 convertase complex (UniProt P01024 23-1663; P00751 260-764)
Assay: cell-based or functional assay
For C3 convertase activity % of the control in this document: test concentration or dose not given here.

Sequence of C3 convertase complex (P01024 23-1663, chain 1 of 2): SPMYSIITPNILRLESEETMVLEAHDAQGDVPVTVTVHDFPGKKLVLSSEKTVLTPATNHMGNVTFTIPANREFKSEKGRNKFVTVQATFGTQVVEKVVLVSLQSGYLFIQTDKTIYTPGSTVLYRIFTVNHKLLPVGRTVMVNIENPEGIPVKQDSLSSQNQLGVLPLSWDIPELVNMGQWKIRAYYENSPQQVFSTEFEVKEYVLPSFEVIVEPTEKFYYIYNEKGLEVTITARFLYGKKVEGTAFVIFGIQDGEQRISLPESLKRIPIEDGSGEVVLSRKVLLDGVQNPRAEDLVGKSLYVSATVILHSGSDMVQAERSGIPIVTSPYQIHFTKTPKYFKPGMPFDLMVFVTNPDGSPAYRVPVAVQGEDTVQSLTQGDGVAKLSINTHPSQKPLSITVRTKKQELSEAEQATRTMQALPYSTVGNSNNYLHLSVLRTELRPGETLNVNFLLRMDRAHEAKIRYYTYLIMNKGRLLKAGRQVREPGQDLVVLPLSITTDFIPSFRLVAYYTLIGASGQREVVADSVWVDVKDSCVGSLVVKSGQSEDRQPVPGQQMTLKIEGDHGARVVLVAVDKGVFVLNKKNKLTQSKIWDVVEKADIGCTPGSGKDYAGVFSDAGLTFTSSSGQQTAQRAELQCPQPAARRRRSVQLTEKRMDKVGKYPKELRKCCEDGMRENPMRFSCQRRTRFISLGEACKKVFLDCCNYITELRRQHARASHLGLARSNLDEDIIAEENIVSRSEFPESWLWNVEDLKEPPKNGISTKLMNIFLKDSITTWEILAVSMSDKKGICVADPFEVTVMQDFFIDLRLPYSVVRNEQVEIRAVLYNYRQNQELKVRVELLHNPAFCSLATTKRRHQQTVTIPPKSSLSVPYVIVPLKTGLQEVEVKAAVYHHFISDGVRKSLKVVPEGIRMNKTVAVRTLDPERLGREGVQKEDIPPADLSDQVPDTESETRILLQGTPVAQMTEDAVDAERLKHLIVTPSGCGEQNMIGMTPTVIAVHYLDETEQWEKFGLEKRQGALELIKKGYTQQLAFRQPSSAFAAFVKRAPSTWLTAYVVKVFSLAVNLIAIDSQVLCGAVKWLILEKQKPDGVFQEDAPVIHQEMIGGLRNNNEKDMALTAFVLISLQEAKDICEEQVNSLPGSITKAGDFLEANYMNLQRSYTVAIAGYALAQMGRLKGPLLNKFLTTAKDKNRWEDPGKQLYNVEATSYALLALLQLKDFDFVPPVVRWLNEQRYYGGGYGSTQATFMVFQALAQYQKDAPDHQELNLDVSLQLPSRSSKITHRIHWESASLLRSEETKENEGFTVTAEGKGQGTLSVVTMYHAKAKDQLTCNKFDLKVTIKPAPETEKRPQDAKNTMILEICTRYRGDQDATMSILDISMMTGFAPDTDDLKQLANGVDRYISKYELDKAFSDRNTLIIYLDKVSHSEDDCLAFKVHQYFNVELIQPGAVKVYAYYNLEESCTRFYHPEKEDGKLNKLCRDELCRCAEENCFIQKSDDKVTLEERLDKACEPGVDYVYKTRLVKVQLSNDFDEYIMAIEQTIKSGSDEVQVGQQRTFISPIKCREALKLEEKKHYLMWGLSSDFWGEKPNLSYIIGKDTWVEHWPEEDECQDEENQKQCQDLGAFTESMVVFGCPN
Sequence of C3 convertase complex (P00751 260-764, chain 2 of 2): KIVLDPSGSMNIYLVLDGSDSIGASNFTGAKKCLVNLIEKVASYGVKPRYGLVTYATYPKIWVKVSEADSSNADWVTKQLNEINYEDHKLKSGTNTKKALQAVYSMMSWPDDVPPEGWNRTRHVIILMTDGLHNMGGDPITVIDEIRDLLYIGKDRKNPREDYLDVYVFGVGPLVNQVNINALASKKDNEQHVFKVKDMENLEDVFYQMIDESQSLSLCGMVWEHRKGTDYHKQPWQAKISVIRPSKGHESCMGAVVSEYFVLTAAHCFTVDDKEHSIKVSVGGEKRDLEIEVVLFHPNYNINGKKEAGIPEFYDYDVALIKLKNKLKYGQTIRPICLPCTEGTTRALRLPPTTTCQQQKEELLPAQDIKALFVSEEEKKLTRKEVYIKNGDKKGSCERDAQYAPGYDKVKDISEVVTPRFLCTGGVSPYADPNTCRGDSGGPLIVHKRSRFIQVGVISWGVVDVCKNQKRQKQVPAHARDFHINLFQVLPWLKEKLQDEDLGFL

C3 convertase activity % of the control | C3 convertase activity IC50 | Binder
25 % of the control | 0.426 µg/mL | pCEP4-1NT8-16CT20 (other) EDCNELPPRRNTEILTGSWSDQTYPEGTQAIYKCRPGYRSLGNVIMVCRKGEWVALNPLRKCQKRPCGHPGDTPFGTFTLTGGNVFEYGVKAVYTCNEGYQLLGEINYRECDTDGWTNDIPICEVVKCLPVTAPENGKIVSSAMEPDREYHFGQAVRFVCNSGYKIEGDEEMHCSDDGFWSKEKPKCVEISCKSPDVINGSPISQKIIYKENERFQYKCNMGYEYSERGDAVCTESGWRPLPSCEEKSCDNPYIPNGDYSPLRIKHRTGDEITYQCRNGFYPATRGNTAKCTSTGWIPAPRCTLKPCDYPDIKHGGLYHENMRRPYFPVAVGKYYSYYCDEHFETPSGSYWDHIHCTQDGWSPAVPCLRKCYFPYLENGYNQNYGRKFVQGKSIDVACHPGYALPKAQTTVTCMENGWSPTPRCIRVKTCSKSSIDIENGFISESQYTYALKEKAKYQCKLGYVTADGETSGSITCGKDGWSAQPTCIKSGASGCKSPPEISHGVVAHMSDSYQYGEEVTYKCFEGFGIDGPAIAKCLGEKWSHPPSCIKTDCLSLPSFENAIPMGEKKDVYKAGEQVTYTCATYYKMDGASNVTCINSRWTGRPTCRDTSCVNPPTVQNAYIVSRQMSKYPSGERVRYQCRSPYEMFGDEEVMCLNGNWTEPPQCKDSTGKCGPPPPIDNGDITSFPLSVYAPASSVEYQCQNLYQLEGNKRITCRNGQWSEPPKCLHPCVISREIMENYNIALRWTAKQKLYSRTGESVEFVCKRGYRLSSRSHTLRTTCWDGKLEYPTCAKRGGSGHHHHHH
18 % of the control | 0.536 µg/mL | pCEP4-1NT4-9CT20 (other) EDCNELPPRRNTEILTGSWSDQTYPEGTQAIYKCRPGYRSLGNVIMVCRKGEWVALNPLRKCQKRPCGHPGDTPFGTFTLTGGNVFEYGVKAVYTCNEGYQLLGEINYRECDTDGWTNDIPICEVVKCLPVTAPENGKIVSSAMEPDREYHFGQAVRFVCNSGYKIEGDEEMHCSDDGFWSKEKPKCVEISCKSPDVINGSPISQKIIYKENERFQYKCNMGYEYSERGDAVCTESGWRPLPSCEEKSGASGCDIPVFMNARTKNDFTWFKLNDTLDYECHDGYESNTGSTTGSIVCGYNGWSDLPICYERECELPKIDVHLVPDRKKDQYKVGEVLKFSCKPGFTIVGPNSVQCYHFGLSPDLPICKEQVQSCGPPPELLNGNVKEKTKEEYGHSEVVEYYCNPRFLMKGPNKIQCVDGEWTTLPVCIVEESTCGDIPELEHGWAQLSSPPYYYGDSVEFNCSESFTMIGHRSITCIHGVWTQLPQCVAIDKLKKCKSSNLIILEEHLKNKKEFDHNSNIRYRCRGKEGWIHTVCINGRWDPEVNCSMAQIQLCPPPPQIPNSHNMTTTLNYRDGEKVSVLCQENYLIQEGEEITCKDGRWQSIPLCVEKIPCSQPPQIEHGTINSSRSSQESYAHGTKLSYTCEGGFRISEENETTCYMGKWSSPPQCEGLPCKSPPEISHGVVAHMSDSYQYGEEVTYKCFEGFGIDGPAIAKCLGEKWSHPPSCIKTDCLSLPSFENAIPMGEKKDVYKAGEQVTYTCATYYKMDGASNVTCINSRWTGRPTCRDTSCVNPPTVQNAYIVSRQMSKYPSGERVRYQCRSPYEMFGDEEVMCLNGNWTEPPQCKDSTGKCGPPPPIDNGDITSFPLSVYAPASSVEYQCQNLYQLEGNKRITCRNGQWSEPPKCLHPCVISREIMENYNIALRWTAKQKLYSRTGESVEFVCKRGYRLSSRSHTLRTTCWDGKLEYPTCAKRGGSGHHHHHH
